Experimental data reported in PMC11094772.
Like-named read-outs stand apart in the source and are kept apart here.

Columns and labels:
Assay in all cases: BLI
[1] = molecular target: KRAS4B (residues 1-185, C118S) tethered to nanodiscs (UniProt P01116)
[2] = molecular target: KRAS4B (residues 1-185, C118S) tethered to nanodiscs (UniProt P01116); remark: listed apart in the source
[3] = molecular target: KRAS4B (residues 1-185, C118S) tethered to nanodiscs (UniProt P01116); remark: listed apart in the source
[4] = molecular target: KRAS4B (residues 1-185, C118S) tethered to nanodiscs (UniProt P01116); remark: listed apart in the source

Kd [1] [nM]	Kd [2] [nM]	koff [2] [s⁻¹]	kon [2] [M⁻¹ s⁻¹]	koff [1] [s⁻¹]	kon [1] [M⁻¹ s⁻¹]	Kd [3] [nM]	koff [3] [s⁻¹]	kon [3] [M⁻¹ s⁻¹]	Kd [4] [nM]	koff [4] [s⁻¹]	kon [4] [M⁻¹ s⁻¹]	Substance
25.5	–	–	–	–	–	–	–	–	–	–	–	tagless dimeric BRAF(S365A):14-3-3 complex (MBP removed by TEV protease) (from UniProt P15056 1-766)
35.5	–	–	–	–	–	–	–	–	–	–	–	tagless monomeric BRAF(WT):14-3-3 complex (MBP removed by TEV protease) (from UniProt P15056 1-766)
177	93.3	0.00235	25400	0.00372	21100	68.2	0.0016	24000	65.5	0.00266	44200	M-BRAF: monomeric MBP-BRAF(WT):14-3-3 complex (1 MBP-BRAF: 2 14-3-3) (from UniProt P15056 1-766)
57.4	28.6	0.00269	94100	0.00395	69000	18.5	0.00185	105000	29.1	0.0034	106000	D-BRAF: dimeric MBP-BRAF(S365A):14-3-3 complex (2 MBP-BRAF: 2 14-3-3) (from UniProt P15056 1-766)
